Measurements taken from doi:10.1101/2024.11.06.622243.

Target: T1, HA-Halo-MRAP2 (human), Q96G30
T1 chain: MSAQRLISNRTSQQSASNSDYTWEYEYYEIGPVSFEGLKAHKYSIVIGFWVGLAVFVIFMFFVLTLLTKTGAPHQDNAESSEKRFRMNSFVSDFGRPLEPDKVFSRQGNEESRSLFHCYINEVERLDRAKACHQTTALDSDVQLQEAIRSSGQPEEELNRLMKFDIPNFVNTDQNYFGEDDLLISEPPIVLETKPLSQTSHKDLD
Assay: single-molecule pull-down (SiMPull); one-colour SiMPull with photobleaching step analysis: HA-Halo-tagged protein labelled on HEK293 cells with membrane-impermeable CA-Sulfo646, lysed in 0.5% LMNG/0.05% CHS, immobilised by biotinylated anti-HA antibody on a PEG-passivated slide, TIRF imaging
Conditions: remark: other sources report otherwise

B1: HA-Halo-MRAP2, Q96G30 1-205 (natural protein)
chain: MSAQRLISNRTSQQSASNSDYTWEYEYYEIGPVSFEGLKAHKYSIVIGFWVGLAVFVIFMFFVLTLLTKTGAPHQDNAESSEKRFRMNSFVSDFGRPLEPDKVFSRQGNEESRSLFHCYINEVERLDRAKACHQTTALDSDVQLQEAIRSSGQPEEELNRLMKFDIPNFVNTDQNYFGEDDLLISEPPIVLETKPLSQTSHKDLD
modifications: here or on the partner: CA-Sulfo646 dye on the Halo tag; CA-Sulfo646 dye on the Halo tag
percent of molecules with one bleaching step: 68% | percent of molecules with three or four bleaching steps: < 5% | percent of molecules with two bleaching steps: 28%
